# Results: IntAct's records for PubMed 29892012
# B1: E3 ubiquitin-protein ligase LNX (Homo sapiens), Q8TBB1 (parent)
# chain: MNQPESANDPEPLCAVCGQAHSLEENHFYSYPEEVDDDLICHICLQALLDPLDTPCGHTYCTLCLTNFLVEKDFCPMDRKPLVLQHCKKSSILVNKLLNKLLVTCPFREHCTQVLQRCDLEHHFQTSCKGASHYGLTKDRKRRSQDGCPDGCASLTATAPSPEVSAAATISLMTDEPGLDNPAYVSSAEDGQPAISPVDSGRSNRTRARPFERSTIRSRSFKKINRALSVLRRTKSGSAVANHADQGRENSENTTAPEVFPRLYHLIPDGEITSIKINRVDPSESLSIRLVGGSETPLVHIIIQHIYRDGVIARDGRLLPGDIILKVNGMDISNVPHNYAVRLLRQPCQVLWLTVMREQKFRSRNNGQAPDAYRPRDDSFHVILNKSSPEEQLGIKLVRKVDEPGVFIFNVLDGGVAYRHGQLEENDRVLAINGHDLRYGSPESAAHLIQASERRVHLVVSRQVRQRSPDIFQEAGWNSNGSWSPGPGERSNTPKPLHPTITCHEKVVNIQKDPGESLGMTVAGGASHREWDLPIYVISVEPGGVISRDGRIKTGDILLNVDGVELTEVSRSEAVALLKRTSSSIVLKALEVKEYEPQEDCSSPAALDSNHNMAPPSDWSPSWVMWLELPRCLYNCKDIVLRRNTAGSLGFCIVGGYEEYNGNKPFFIKSIVEGTPAYNDGRIRCGDILLAVNGRSTSGMIHACLARLLKELKGRITLTIVSWPGTFL
# partner: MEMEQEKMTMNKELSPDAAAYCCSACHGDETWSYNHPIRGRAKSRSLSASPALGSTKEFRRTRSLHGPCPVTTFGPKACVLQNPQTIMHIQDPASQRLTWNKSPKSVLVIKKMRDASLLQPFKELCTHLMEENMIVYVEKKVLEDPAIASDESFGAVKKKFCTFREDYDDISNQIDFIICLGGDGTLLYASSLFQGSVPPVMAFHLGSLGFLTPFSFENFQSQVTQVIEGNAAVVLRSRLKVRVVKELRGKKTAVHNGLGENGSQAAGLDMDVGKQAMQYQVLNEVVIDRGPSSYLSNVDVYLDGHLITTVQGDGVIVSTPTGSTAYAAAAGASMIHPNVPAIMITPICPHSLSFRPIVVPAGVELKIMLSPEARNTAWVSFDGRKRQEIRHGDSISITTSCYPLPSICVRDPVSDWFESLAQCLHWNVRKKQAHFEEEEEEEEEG
# B2: E3 ubiquitin-protein ligase LNX (Homo sapiens), Q8TBB1 (parent)
# chain: B1 chain
# partner: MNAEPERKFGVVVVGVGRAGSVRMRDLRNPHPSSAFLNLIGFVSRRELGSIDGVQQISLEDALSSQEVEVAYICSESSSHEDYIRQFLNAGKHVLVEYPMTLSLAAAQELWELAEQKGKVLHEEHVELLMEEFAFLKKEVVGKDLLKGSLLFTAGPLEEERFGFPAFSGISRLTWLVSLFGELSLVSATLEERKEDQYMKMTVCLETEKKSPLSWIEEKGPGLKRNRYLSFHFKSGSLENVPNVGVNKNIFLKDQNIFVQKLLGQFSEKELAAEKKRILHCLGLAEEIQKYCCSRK
# B3: E3 ubiquitin-protein ligase LNX (Homo sapiens), Q8TBB1 (parent)
# chain: B1 chain
# partner: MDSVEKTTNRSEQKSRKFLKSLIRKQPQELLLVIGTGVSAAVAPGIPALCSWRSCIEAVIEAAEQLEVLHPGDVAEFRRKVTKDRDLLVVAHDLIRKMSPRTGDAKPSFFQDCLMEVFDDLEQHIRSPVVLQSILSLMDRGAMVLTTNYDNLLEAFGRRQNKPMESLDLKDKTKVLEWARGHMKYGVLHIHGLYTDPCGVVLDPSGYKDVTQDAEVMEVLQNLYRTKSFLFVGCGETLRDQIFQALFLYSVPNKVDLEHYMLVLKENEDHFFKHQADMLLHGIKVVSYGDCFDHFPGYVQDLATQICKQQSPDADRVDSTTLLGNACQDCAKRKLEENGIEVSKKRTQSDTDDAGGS
# B4: Zinc finger and BTB domain-containing protein 49 (Homo sapiens), Q6ZSB9 (parent)
# chain: MDPVATHSCHLLQQLHEQRIQGLLCDCMLVVKGVCFKAHKNVLAAFSQYFRSLFQNSSSQKNDVFHLDVKNVSGIGQILDFMYTSHLDLNQDNIQVMLDTAQCLQVQNVLSLCHTFLKSATVVQPPGMPCNSTLSLQSTLTPDATCVISENYPPHLLQECSADAQQNKTLDESHPHASPSVNRHHSAGEISKQAPDTSDGSCTELPFKQPNYYYKLRNFYSKQYHKHAAGPSQERVVEQPFAFSTSTDLTTVESQPCAVSHSECILESPEHLPSNFLAQPVNDSAPHPESDATCQQPVKQMRLKKAIHLKKLNFLKSQKYAEQVSEPKSDDGLTKRLESASKNTLEKASSQSAEEKESEEVVSCENFNCISETERPEDPAALEDQSQTLQSQRQYACELCGKPFKHPSNLELHKRSHTGEKPFECNICGKHFSQAGNLQTHLRRHSGEKPYICEICGKRFAASGDVQRHIIIHSGEKPHLCDICGRGFSNFSNLKEHKKTHTADKVFTCDECGKSFNMQRKLVKHRIRHTGERPYSCSACGKCFGGSGDLRRHVRTHTGEKPYTCEICNKCFTRSAVLRRHKKMHCKAGDESPDVLEELSQAIETSDLEKSQSSDSFSQDTSVTLMPVSVKLPVHPVENSVAEFDSHSGGSYCKLRSMIQPHGVSDQEKLSLDPGKLAKPQMQQTQPQAYAYSDVDTPAGGEPLQADGMAMIRSSLAALDNHGGDPLGSRASSTTYRNSEGQFFSSMTLWGLAMKTLQNENELDQ
# B5: Glucosamine-6-phosphate deaminase 2 (Homo sapiens), Q8TDQ7 (parent)
# chain: MRLVILDNYDLASEWAAKYICNRIIQFKPGQDRYFTLGLPTGSTPLGCYKKLIEYHKNGHLSFKYVKTFNMDEYVGLPRNHPESYHSYMWNNFFKHIDIDPNNAHILDGNAADLQAECDAFENKIKEAGGIDLFVGGIGPDGHIAFNEPGSSLVSRTRLKTLAMDTILANAKYFDGDLSKVPTMALTVGVGTVMDAREVMILITGAHKAFALYKAIEEGVNHMWTVSAFQQHPRTIFVCDEDATLELRVKTVKYFKGLMHVHNKLVDPLFSMKDGN
# partner: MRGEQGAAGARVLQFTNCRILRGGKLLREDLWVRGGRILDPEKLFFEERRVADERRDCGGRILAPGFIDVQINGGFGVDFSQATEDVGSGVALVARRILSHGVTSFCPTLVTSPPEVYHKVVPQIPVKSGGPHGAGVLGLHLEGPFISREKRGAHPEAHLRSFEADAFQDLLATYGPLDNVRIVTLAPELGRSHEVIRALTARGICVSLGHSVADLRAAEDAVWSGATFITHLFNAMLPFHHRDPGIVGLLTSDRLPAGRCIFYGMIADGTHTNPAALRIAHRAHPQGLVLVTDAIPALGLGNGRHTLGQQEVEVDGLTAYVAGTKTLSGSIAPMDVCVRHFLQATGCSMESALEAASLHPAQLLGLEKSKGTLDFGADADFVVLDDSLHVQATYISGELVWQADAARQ
# B6: E3 ubiquitin-protein ligase LNX (Homo sapiens), Q8TBB1 (parent)
# chain: B1 chain
# partner: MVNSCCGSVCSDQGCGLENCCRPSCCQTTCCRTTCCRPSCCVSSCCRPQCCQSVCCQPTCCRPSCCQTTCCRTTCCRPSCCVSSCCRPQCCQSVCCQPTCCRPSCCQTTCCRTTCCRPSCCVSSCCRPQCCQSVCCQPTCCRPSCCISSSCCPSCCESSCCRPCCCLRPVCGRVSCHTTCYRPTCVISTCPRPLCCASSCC
# B7: E3 ubiquitin-protein ligase LNX (Homo sapiens), Q8TBB1 (parent)
# chain: B1 chain
# partner: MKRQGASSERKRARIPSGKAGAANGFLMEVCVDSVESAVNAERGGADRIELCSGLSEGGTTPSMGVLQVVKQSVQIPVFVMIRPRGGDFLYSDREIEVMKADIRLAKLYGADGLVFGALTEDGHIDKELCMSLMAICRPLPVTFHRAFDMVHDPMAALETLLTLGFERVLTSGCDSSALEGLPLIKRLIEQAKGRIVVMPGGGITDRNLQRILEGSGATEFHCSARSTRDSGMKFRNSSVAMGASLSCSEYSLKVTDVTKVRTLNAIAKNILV
# B8: E3 ubiquitin-protein ligase LNX (Homo sapiens), Q8TBB1 (parent)
# chain: B1 chain
# partner: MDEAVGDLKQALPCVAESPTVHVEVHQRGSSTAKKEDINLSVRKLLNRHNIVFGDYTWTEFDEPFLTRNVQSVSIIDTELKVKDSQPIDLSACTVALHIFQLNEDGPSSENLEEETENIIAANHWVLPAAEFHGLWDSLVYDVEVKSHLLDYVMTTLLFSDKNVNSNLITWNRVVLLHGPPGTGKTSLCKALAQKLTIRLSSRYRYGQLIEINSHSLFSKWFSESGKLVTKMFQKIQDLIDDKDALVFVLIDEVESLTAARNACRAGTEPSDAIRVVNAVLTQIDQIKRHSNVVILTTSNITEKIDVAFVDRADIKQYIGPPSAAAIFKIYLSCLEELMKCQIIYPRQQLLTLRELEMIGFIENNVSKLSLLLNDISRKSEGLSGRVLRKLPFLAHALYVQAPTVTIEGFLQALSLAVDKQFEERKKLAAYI
# B9: E3 ubiquitin-protein ligase LNX (Homo sapiens), Q8TBB1 (parent)
# chain: B1 chain
# partner: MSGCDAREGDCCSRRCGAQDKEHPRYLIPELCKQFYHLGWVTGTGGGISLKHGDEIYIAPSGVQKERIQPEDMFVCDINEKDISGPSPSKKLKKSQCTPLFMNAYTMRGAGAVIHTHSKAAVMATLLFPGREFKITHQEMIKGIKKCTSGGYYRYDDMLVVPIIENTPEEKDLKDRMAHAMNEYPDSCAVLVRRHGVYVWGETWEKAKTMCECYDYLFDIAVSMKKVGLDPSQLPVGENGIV
# Variants of: B1
# Conditions: with nadk_human NADK
row,Variant,effect of a mutation on the interaction
1,E295K,disrupting interaction strength

# Variants of: B2
# Conditions: with biea_human BLVRA
row,Variant,effect of a mutation on the interaction
1,E295K,disrupting interaction strength

# Variants of: B3
# Conditions: with FAM118A
row,Variant,effect of a mutation on the interaction
1,E295K,disrupting interaction strength

# Variants of: B4
# Conditions: with gopc_human GOPC
row,Variant,effect of a mutation on the interaction
1,D88V,with no effect

# Variants of: B5
# Conditions: with naga_human AMDHD2, Q9Y303
row,Variant,effect of a mutation on the interaction
1,MRLVILDNYDLASEWAAKYICNRIIQFKPGQDRYFTLGLPTGSTPLGCYKKLIEYHKNGHLSFKYVKTFNMDEYVGLPRNHPESYHSYMWNNFFKHIDIDPNNAHILDGNAADLQAECDAFENKIKEAGGIDLFVGGIGPDGHIAFNEPGSSLVSRTRLKTLAMDTILANAKYFDGDLSKVPTMALTVGVGTVMDAREVMILITGAHKAFALYKAVEEGVNHMWTVSAFQQHPRTIFVCDEDATLELRVKTVKYFKGLMHVHNKLVDPLFSMKDGN [I216V],with no effect

# Variants of: B6
# Conditions: with kr412_human KRTAP4-12, Q9BQ66
row,Variant,effect of a mutation on the interaction
1,E295K,disrupting interaction strength

# Variants of: B7
# Conditions: with cutc_human CUTC
row,Variant,effect of a mutation on the interaction
1,E295K,disrupting interaction strength

# Variants of: B8
# Conditions: with pch2_human TRIP13, Q15645
row,Variant,effect of a mutation on the interaction
1,E295K,disrupting interaction strength

# Variants of: B9
# Conditions: with mtnb_human APIP
row,Variant,effect of a mutation on the interaction
1,E295K,disrupting interaction strength
